Assay results taken from PMC7076015, “An epilepsy-associated mutation in the nuclear import receptor KPNA7 reduces nuclear localization signal binding” (Scientific Reports, 2020).

Key:
Conditions in all cases: both partners purified
MBP-KPNA7(E344Q) [1] = target: T1, MBP-KPNA7(E344Q) (human, UniProt A9QM74 1-516, E344Q); experiment: pull-down; bead binding assay with a range of GST-GFP-hnRNP R-bNLS concentrations (10 nM to 2.7 μM) on KPNA7 proteins; binding curve, apparent KD
T1 construct: Substitution found in epilepsy patients (occurs in nature); also called KPNA7 mutant E344Q; E344Q KPNA7; source: E. coli BL21, purified (amylose resin, eluted with maltose, dialyzed)
T1 sequence (A9QM74 whole entry E344Q): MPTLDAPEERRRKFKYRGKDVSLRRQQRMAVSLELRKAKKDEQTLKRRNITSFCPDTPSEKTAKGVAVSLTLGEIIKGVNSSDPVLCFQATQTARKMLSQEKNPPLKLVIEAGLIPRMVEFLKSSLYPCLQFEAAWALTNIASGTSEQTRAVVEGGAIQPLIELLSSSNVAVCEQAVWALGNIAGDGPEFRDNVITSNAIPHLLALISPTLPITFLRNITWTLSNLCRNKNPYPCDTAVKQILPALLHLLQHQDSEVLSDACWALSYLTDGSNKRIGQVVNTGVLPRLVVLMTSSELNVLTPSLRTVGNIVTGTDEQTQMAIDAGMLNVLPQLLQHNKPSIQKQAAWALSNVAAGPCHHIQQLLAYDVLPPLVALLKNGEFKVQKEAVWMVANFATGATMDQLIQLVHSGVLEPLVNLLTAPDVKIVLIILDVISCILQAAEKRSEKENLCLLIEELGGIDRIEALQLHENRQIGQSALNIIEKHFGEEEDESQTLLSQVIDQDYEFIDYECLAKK

MBP-KPNA7 (wild type) = target: T2, MBP-KPNA7 (wild type) (human, UniProt A9QM74 1-516); experiment: as above
T2 construct: also called WT KPNA7; MBP-KPNA7 WT; source: E. coli BL21, purified (amylose resin, eluted with maltose, dialyzed)
T2 sequence (A9QM74 whole entry): as the sequence (A9QM74 whole entry E344Q) above, with Q344E counted along it

MBP-KPNA7(E344Q) [2] = target: T1, MBP-KPNA7(E344Q); experiment: pull-down; MBP fusion proteins on amylose resin (1 μg/μl), GST-GFP-NLS constructs in solution (250 nM or indicated concentrations) with Imp-β (250 nM); 2 hrs at 4 °C, 20 mM Tris pH 8, 200 mM NaCl, 1 mM EDTA, 1 mM DTT, 0.05% Triton X-100; western blot
MBP-KPNA7(P339A) = target: T3, MBP-KPNA7(P339A) (human, UniProt A9QM74 1-516, P339A); experiment: as above
T3 construct: Substitution found in epilepsy patients (occurs in nature); also called KPNA7 mutant P339A; P339A KPNA7; source: E. coli BL21, purified (amylose resin, eluted with maltose, dialyzed)
T3 sequence (A9QM74 whole entry P339A): as the sequence (A9QM74 whole entry E344Q) above, with P339A, Q344E counted along it

Kd (MBP-KPNA7(E344Q) [1]): ~223 nM
Kd (MBP-KPNA7 (wild type)): ~123 nM
fold less binding than WT KPNA7 (MBP-KPNA7(E344Q) [2]): ~10 fold
binding result (MBP-KPNA7(P339A)): binds
B1: GST-GFP-hnRNP R bipartite NLS (domain or fragment, UniProt O43390 565-589, looked up)
chain: RGGNVGGKRKADGYNQPDSKRRQTN
notes: hnRNP R, bipartite NLS (bNLS, a.a. 565-589), cloned into pGEX-4T1-GFP; The limits are those that the text gives for the NLS; also called hnRNP R bNLS; hnRNP R-bNLS; source: E. coli BL21, purified (glutathione resin)
